1 substance from patent US20170008971A1 can be followed below.

As a reminder, the Kd is the concentration at which binding is half-saturated. A lower Kd goes with a tighter complex.

Assay [1] concerns the target CD3 on Jurkat cells (human) (UniProt P07766). As to the kind of experiment: binding to Jurkat cells (data not shown; Scatchard assay presumed).
The target in assay [2] is human epidermal growth factor receptor 2 (HER2) on cells (human) (UniProt P04626). As to the kind of experiment: competitive Scatchard analysis, 125I-trastuzumab Fab tracer on SKBR-3 cells.

For “HER2 T cell dependent bispecific antibody (HER2-TDB), huIgG1, knob arm humanized anti-HER2 4D5 (trastuzumab), hole arm humanized anti-CD3 UCHT1.v9”, the Kd in assay [1] was determined as 4.7 nM; in assay [2], 5.4 nM.
